Test results from publication PMC12012885, “Cell-Free Reaction System for ATP Regeneration from D-Fructose” (ACS Synthetic Biology, 2025).
Numbering of substitutions follows the chain as printed. In names and notes the source's numbering stands.

B1: Bad.F6Pkt (Bifidobacterium adolescentis ATCC 15703) (protein)
chain: MTSPVIGTPWKKLNAPVSEEAIEGVDKYWRAANYLSIGQIYLRSNPLMKEPFTREDVKHRLVGHWGTTPGLNFLIGHINRLIADHQQNTVIIMGPGHGGPAGTAQSYLDGTYTEYFPNITKDEAGLQKFFRQFSYPGGIPSHYAPETPGSIHEGGELGYALSHAYGAVMNNPSLFVPAIVGDGEAETGPLATGWQSNKLINPRTDGIVLPILHLNGYKIANPTILSRISDEELHEFFHGMGYEPYEFVAGFDNEDHLSIHRRFAELFETVFDEICDIKAAAQTDDMTRPFYPMIIFRTPKGWTCPKFIDGKKTEGSWRSHQVPLASARDTEAHFEVLKNWLESYKPEELFDENGAVKPEVTAFMPTGELRIGENPNANGGRIREELKLPKLEDYEVKEVAEYGHGWGQLEATRRLGVYTRDIIKNNPDSFRIFGPDETASNRLQAAYDVTNKQWDAGYLSAQVDEHMAVTGQVTEQLSEHQMEGFLEGYLLTGRHGIWSSYESFVHVIDSMLNQHAKWLEATVREIPWRKPISSMNLLVSSHVWRQDHNGFSHQDPGVTSVLLNKCFNNDHVIGIYFPVDSNMLLAVAEKCYKSTNKINAIIAGKQPAATWLTLDEARAELEKGAAEWKWASNVKSNDEAQIVLAATGDVPTQEIMAAADKLDAMGIKFKVVNVVDLVKLQSAKENNEALSDEEFAELFTEDKPVLFAYHSYARDVRGLIYDRPNHDNFNVHGYEEQGSTTTPYDMVRVNNIDRYELQAEALRMIDADKYADKINELEAFRQEAFQFAVDNGYDHPDYTDWVYSGVNTNKQGAISATAATAGDNE
notes: homodimer
B2: Bad.F6Pkt (Bifidobacterium adolescentis ATCC 15703; H548N) (protein)
chain: B1 chain with H548N
notes: homodimer

How the values were obtained:
Asp52 = Asp52 (UniProt position 70, TDGSTDYGILQ); conditions: cited from earlier work
Ps.LrhI = biological target: T1, Ps.LrhI (Stutzerimonas stutzeri, UniProt Q75WH8); assay: coupled assay with D-erythrulose reductase, NADH at […] nm; format: biochemical; conditions: 10 mM D-erythrose, 4 mM MgCl2, pH 7.0, 37 °C
T1 construct: gene L-RhI; N-terminal hexa-His tag, synthetic gene in pET-28a, E. coli Rosetta(DE3) pLysS
T1 sequence (Q75WH8 1-430): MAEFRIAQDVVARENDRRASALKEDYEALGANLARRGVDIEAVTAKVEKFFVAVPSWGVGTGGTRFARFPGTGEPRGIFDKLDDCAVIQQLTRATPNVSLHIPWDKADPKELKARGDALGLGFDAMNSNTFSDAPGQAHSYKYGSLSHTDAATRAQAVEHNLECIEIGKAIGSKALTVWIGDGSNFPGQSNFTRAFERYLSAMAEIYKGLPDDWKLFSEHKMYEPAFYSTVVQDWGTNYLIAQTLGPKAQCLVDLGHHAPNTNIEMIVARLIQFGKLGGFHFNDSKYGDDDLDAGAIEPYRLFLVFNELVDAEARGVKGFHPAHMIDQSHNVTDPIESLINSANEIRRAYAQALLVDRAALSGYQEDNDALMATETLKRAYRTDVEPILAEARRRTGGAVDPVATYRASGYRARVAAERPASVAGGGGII

purified protein = substrate: O=C(CO)[C@H](O)CO; assay: purified protein; format: biochemical, Bifidobacterium adolescentis; conditions: pH 6.5, 37 °C, 50 mM inorganic phosphate, 0.8 mM TPP, 3.8 mM MgCl2

Molecule | Km (purified protein) [mM] | other results
Hen egg white lysozyme (lysozyme C) (Gallus gallus) | – | pKa (Asp52): 3.33
OC1OC[C@@H](O)[C@H]1O (stereo partly drawn) [D-erythrose] | – | coupled assay with D-erythrulose reductase, NADH at 340 nm (Ps.LrhI): We characterized the D-erythrose activity of the enzyme and its stability under synthesis-like conditions
B1 | 36.2 ± 3.2 | –
B2 | 48.7 ± 0.4 | –
